Laboratory results taken from patent US20060052294A1 (CINCINNATI CHILDREN S HOSPITAL MEDICAL CENTER, published 2006).
Positions count from the first letter of the chain named. Names and notes keep the numbering of the source.

T1: human C5a receptor (human, UniProt P21730 1-350)
T1 construct: whole, on cells; also called C5aR-RBL cells; RBL-C5aR cells
T1 sequence (looked up): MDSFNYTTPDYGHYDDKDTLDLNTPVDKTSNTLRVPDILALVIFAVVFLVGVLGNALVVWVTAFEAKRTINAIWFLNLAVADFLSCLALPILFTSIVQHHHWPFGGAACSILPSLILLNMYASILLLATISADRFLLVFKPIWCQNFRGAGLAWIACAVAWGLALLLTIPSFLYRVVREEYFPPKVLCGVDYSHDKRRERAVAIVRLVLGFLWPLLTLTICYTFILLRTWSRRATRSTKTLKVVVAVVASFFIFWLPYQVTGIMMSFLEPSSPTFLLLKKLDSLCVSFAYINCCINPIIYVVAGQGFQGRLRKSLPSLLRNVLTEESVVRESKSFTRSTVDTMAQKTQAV

B1: C5a-(1-66,Cys27Ala)-A8B (ligand)
chain: TLQKKIEEIAAKYKHSVVKKCCYDGAAVNNDETCEQRAARISLGPRCIKAFTECCVVASQLRANISFKRSLLR
notes: Mutein of human C5a, expressed in the E. coli periplasm without a fusion partner and purified on mAb 561; also called C5aRA A8B; mutein A8B
B2: C5a-(1-66,Cys27Ala)-A8B-Ala69 (ligand)
chain: B1 chain with R69A
notes: also called A8B-Arg69Ala
B3: C5a-(1-66,Cys27Ala)-A8B-Leu70-Tyr73 (ligand)
chain: B1 chain with S70L, R73Y
notes: also called 67-FKRLLLY-73
B4: C5a-(1-66,Cys27Ala)-A8B-Leu70 (ligand)
chain: B1 chain with S70L
notes: also called 67-FKRLLLR-73
B5: C5a-(1-66,Cys27Ala)-A8B-Asp69 (ligand)
chain: B1 chain with R69D
notes: also called A8B-Arg69Asp
B6: C5a-(1-66,Cys27Ala)-A8B-Cys73 (ligand)
chain: B1 chain with R73C
notes: also called Ab8-Cys73; 67-FKRSLLC-73
B7: C5a-(1-66,Cys27Arg)-A8B (ligand)
chain: B1 chain with A27R
notes: also called A8B-Arg27; A8B Arg 27
B8: recombinant human C5a (ligand)
chain: TLQKKIEEIAAKYKHSVVKKCCYDGACVNNDETCEQRAARISLGPRCIKAFTECCVVASQLRANISHKDMQLGR
notes: 74-residue recombinant human C5a; also called rhC5a; rC5a
B9: C5a-(1-66,Cys27Ala)-A8B-Del.71-73 (ligand)
chain: TLQKKIEEIAAKYKHSVVKKCCYDGAAVNNDETCEQRAARISLGPRCIKAFTECCVVASQLRANISFKRS
notes: also called C5a-(1-66, Cys27Ala)-FKRS-70; 67-FKRS-70
B10: C5a-(1-66,Cys27Ala)-A8B-Lys69-Ala70 (ligand)
chain: B1 chain with R69K, S70A

Target: T1, human C5a receptor
Test: competition with 125I-rhC5a tracer on RBL cells stably transfected with human C5a receptor, on ice, filtration
Protocol: (§1) For competitive binding studies, 40 μl of a reaction mixture containing a constant amount of ¹²⁵I-rhC5a as tracer (≈17000 cpm) and increasing concentrations of unlabeled C5a muteins were incubated in a microtiter plate on ice. […] The binding reaction was started by adding 25 μl of ice-cold RBL-C5aR cell suspension. After incubation on ice for 30 min, cell bound and free ¹²⁵I-rhC5a were separated by filtration of 60 μl through a microtitration-membrane plate (Multiscreen™-HV; 0.45 μm, MAHV N45, Millipore) using a vacuum manifold (Millipore). […] Punched out membranes were counted in a γ-counter (Packard, Canberra). The plot of cell-bound ¹²⁵I-rhC5a versus concentration of unlabeled competitor yields the half-maximal inhibitory concentrations (IC₅₀) (cf. FIG. 3, Table 1).

Row | Binder | IC50 [µM]
1 | B1 | 0.0354
2 | B2 | 0.0301
3 | B3 | 0.0213
4 | B4 | 0.0231
5 | B5 | 0.0054
6 | B6 | 0.0373
7 | B7 | 0.0431
8 | B8 | 0.0027
9 | B9 | 0.0269

Target: T1, human C5a receptor
Test: cell-based or functional assay

Row | Binder | ED50 [nM] (N-acetyl-beta-D-glucosaminidase release from C5aR-RBL cells) | ID50 [nM] (inhibition of N-acetyl-beta-D-glucosaminidase release from C5aR-RBL cells)
10 | B10 | > 4000 | 60.8
11 | B1 | > 4000 | 22.3
12 | B2 | 36.8 | 
13 | B3 | > 4000 | 8.8
14 | B4 | > 4000 | 7.9
15 | B5 | 5.9 | 
16 | B6 | > 4000 | 17.4
17 | B7 | > 4000 | 17.5
18 | B8 | 3.5 | 
19 | B9 | > 4000 | 17.4

Target: T1, human C5a receptor
Test: competition with 125I-rhC5a on RBL cells stably transfected with human C5a receptor; reference rhC5a
Protocol: The values for rhC5a (“isolated” curve closest to the y-axis) are depicted as black circles, those for the mutein A8B as rhombi, for A8BLeu70 as triangles, for A8BLeu70Tyr73 as squares, for A8BArg as hexagons, for A8Bdel71-73 as dark-gray circles and those for A8BCys73 as light-gray circles.
as §1

Row | Binder | fold difference of IC50 against rhC5a [fold]
20 | B3 | 8
21 | B7 | 16
